Literature values, collected in PMC3937638.

Molecular target: His45 (UniProt position 80, RKIGFHVCAAG)
Details: HA8(AN)-bound Link_TSG6

For “TSG-6 Link module (Link_TSG6; tumor necrosis factor-stimulated gene-6 protein, hyaluronan-binding domain) (Homo sapiens)”, the pKa is given as 5.7.
